Experimental data reported in patent US6399759B1, “Ant proteases and methods of inhibition” (University of Georgia Research Foundation, Inc., priority 1999, dated 2002).

Key:
Experiment in all cases: Inhibition of amidolytic activity by naturally occurring protease inhibitors
Conditions in all cases: 10 minutes incubation at 25° C. in 50 mM Tris-HCl, 100 mM NaCl, pH 7.4
Soli C1 = target: T1, Soli C1 (Solenopsis invicta, UniProt Q7SIG2); format: biochemical
T1 construct: Fourth instar larvae were extracted in a 1:10 (weight/volume) ratio of 20 mM Tris-HCl pH 7.4; from tissue; host or cells: whole Solenopsis invicta 4th instar larvae (buffer extract, acetone precipitation, Q Sepharose peak III, Mono Q, Superdex 75)
T1 sequence (Q7SIG2 whole entry): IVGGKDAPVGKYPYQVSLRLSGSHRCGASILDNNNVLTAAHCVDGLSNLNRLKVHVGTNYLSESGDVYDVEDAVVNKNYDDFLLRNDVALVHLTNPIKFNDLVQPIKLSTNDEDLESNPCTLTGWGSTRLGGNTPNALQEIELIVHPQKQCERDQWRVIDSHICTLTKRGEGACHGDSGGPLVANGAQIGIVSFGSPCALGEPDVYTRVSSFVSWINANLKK
Procedure: (§1) Enzyme Assay—Generally, the amidolytic activities of each proteinase were measured with the substrates MeOSuc-Ala-Ala-Pro-Val-pNA (SEQ ID NO:8) and N-Suc-Ala-Ala-Pro-Phe-pNA (SEQ ID NO:7) in 0.05 M Tris-HCl and 100 mM NaCl pH 7.4 (assay buffer). Release of the pNA group was assayed by monitoring the optical density of the test solution at […]. Enzyme inhibition assays by protein inhibitors were conducted in the same assay buffer using an inhibitor concentration ranging from 0.02-50 nM with a 10 minute preincubation time and with the final enzyme concentration being 1.0 nM. All kinetic studies with substrates and inhibitors were performed at the optimum pH of the individual proteinases, utilizing the following buffers: 150 mM NaCl, 50 mM Tris-HCl pH 8.0 (E1); 150 mM NaCl, 50 mM CHES pH 9.5 (E2 and C2); and 150 mM NaCl, 50 mM CAPS pH 10.0 (C1).

Soli C2 = format: biochemical, Solenopsis invicta
Procedure: as §1

Soli E1 = format: biochemical, Solenopsis invicta
Procedure: as §1

Soli E2 = format: biochemical, Solenopsis invicta
Procedure: as §1

Row | Molecule | IC50 Soli C1 (Soli C1) | IC50 Soli C2 (Soli C2) | IC50 (Soli C1) | IC50 (Soli E1) | IC50 (Soli E2) | IC50 (Soli C2)
1 | Lima Bean Trypsin Inhibitor: lima bean trypsin inhibitor from Sigma (protein, not fully specified) SGHHEHSTDXPSXSSKPCCXHCACTKSIPPQCRCTDLRLDSCHSACKSCICTLSIPAQCVCXXIXDFCYEPCKSSHSDDDNNN | active | active |  |  |  | 
2 | Eglin C: naturally occurring protease inhibitor obtained from Ciba Geigy (protein) TEFGSELKSFPEVVGKTVDQAREYFTLHYPQYDVYFLPEGSPVTLDLRYNRVRVFYNPGTNVVNHVPHVG |  |  | 1.24 nM | 3.93 nM | 1.89 nM | 0.442 nM
3 | Soy Bean Trypsin Inhibitor I-S: soybean trypsin inhibitor Type I-S from Sigma (protein) DFVLDNEGNPLENGGTYYILSDITAFGGIRAAPTGNERCPLTVVQSRNELDKGIGTIISSPYRIRFIAEGHPLSLKFDSFAVIMLCVGIPTEWSVVEDLPEGPAVKIGENKDAMDGWFRLERVSDDEFNNYKLVFCPQQAEDDKCGDIGISIDHDDGTRRLVVSKNKPLVVQFQKLDKESL |  |  | 37 nM | 4.22 nM | 5.58 nM | 1.41 nM
